# According to article PMC9042962:
# Molecular target: GFP-BLM (full-length Bloom helicase, GFP fusion protein) (human) (UniProt P54132)
# Assay: photobleaching step counting (single-molecule TIRFM, DNA curtain); GFP-tagged BLM (0.2 nM injected) bound to the free ends (30-nt 3' ssDNA overhang) of lambda-DNA tethered to a lipid bilayer; number of GFP photobleaching steps per end-bound complex; BLM buffer (20 mM Tris-HCl pH 7.5, 1 mM MgCl2, 2 mM ATP, 1 mM DTT, 0.2 mg/ml BSA), 37 °C; oligomer counted on DNA ends
substance,measurement,value
"GFP-BLM (full-length Bloom helicase, GFP fusion protein), P54132 1-1417 (enzyme; other documents disagree on this pair)",stoichiometry N,1 to 6 monomers
same,stoichiometry N (BLM monomers per DNA end),3.6
